In general, IC50 refers to the concentration needed to halve the response being measured. A low value points to inhibition by little substance.

Assay [1] addresses CC-chemokine receptor CCR5 on the cell surface (UniProt P51681). In words: flow cytometry on L1.2-CCR5+ cells, saturating mAb, PE anti-mouse IgG.
Assay [2] shares this target. In words: flow cytometry on PHA/IL-2-stimulated PBMC, mean fluorescence intensity. (In general: Flow cytometry measures light scatter and fluorescence of single cells or particles in a stream.)
For assay [3] the target is unchanged. Briefly: flow cytometry on PHA/IL-2-stimulated PBMC.
The target is the same in assay [4]. Briefly: cell-based or functional assay.
Assay [5] has the same target.

Sequence of UniProt P51681 (P51681 whole entry): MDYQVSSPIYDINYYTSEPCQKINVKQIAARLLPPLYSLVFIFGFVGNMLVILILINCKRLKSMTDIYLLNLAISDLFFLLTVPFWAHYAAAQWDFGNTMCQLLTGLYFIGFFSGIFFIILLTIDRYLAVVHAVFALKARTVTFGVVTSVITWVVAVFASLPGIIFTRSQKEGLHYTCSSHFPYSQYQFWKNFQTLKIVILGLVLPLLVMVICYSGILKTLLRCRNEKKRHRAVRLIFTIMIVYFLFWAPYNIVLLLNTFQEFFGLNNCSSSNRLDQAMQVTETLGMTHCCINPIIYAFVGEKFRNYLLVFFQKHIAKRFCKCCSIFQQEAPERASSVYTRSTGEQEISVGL

For the substance “anti-CCR5 monoclonal antibody PA14 (ATCC Accession No. HB-12610)”, the % of L1.2-CCR5+ cells stained in assay [1] is above 90%. Moreover, the fold difference in m.f.i. against PA9 in assay [2] was 7 fold. This substance also had a % of PBMC stained in assay [3] above 20%. In assay [4], the IC50, inhibition of JR-FL entry (luciferase reporter virus, U87MG-CD4+CCR5+ cells) was determined as 0.024 µg/mL; the IC50, inhibition of cell-cell fusion (RET assay, PM1 and HeLa-EnvJR-FL+ cells) came out at 1.7 µg/mL; the IC50 for inhibition of RANTES-induced calcium influx in L1.2-CCR5+ cells worked out at 50 µg/mL; the ratio of the PA14 IC50 to the 2D7 IC50, RANTES-induced calcium influx came to 8 fold. In assay [5], this substance returned a half-maximal inhibitory concentration (IC50) of 1.58 µg/mL.
“anti-CCR5 mAb 2D7 (Pharmingen) (antibody)” returned a % of L1.2-CCR5+ cells stained in assay [1] above 90%. This substance displayed a % of PBMC stained in assay [3] above 20%. In assay [4], this substance showed an IC50, inhibition of JR-FL entry (luciferase reporter virus, U87MG-CD4+CCR5+ cells) of 0.026 µg/mL; an IC50, inhibition of cell-cell fusion (RET assay, PM1 and HeLa-EnvJR-FL+ cells) of 1.6 µg/mL; a K (equal to the IC50), inhibition of cell-cell fusion, median effect fit (RET assay) of 0.36 µg/mL. In addition, the IC50 in assay [5] was 1.38 µg/mL.

Values taken from patent publication EP2058006A1.
